Assay [1] concerns the target ヒト組換え型CD4 (RepliGen, USA) (human) (UniProt P01730). The assay is described as follows: SPR (BIACORE 2000, 25 C), mimetic immobilised on B1 chip, soluble CD4 injected at 16-330 nM.
For assay [2] the target is unchanged. Put plainly: SPR (BIACORE 2000, 25 C), KD calculated as kd/ka; mimetic immobilised, soluble CD4 injected.

This passage reports koff, kon and Kd results from JP2003510672A.

In general, koff refers to the first-order rate constant of dissociation. A lower koff goes with slow dissociation. By kon is commonly meant a measure of how fast the partners come together. High values mean faster complex formation, low ones slower complex formation. As usually defined, the Kd is the equilibrium constant for the complex coming apart. For the substance “疑似体 Mk3Tyr-long1SH (cyclic peptide mimetic of the ST40 paratope; MK3Tyr with the Ile between Tyr140 and Asn144 replaced by Lys extended with 3-mercaptopropionic acid)”, in assay [1], the koff came out at 0.000264 s⁻¹ and the kon is 82600 M⁻¹ s⁻¹. Further, in assay [2], the Kd was 3.2 nM.
